Experimental data reported in publication PMC4701049 (Biochemistry, 2015).

B1: Pseudomonas putida WCS358 PupR cytoplasmic anti-sigma domain (PupR-ASD), wild type (domain or fragment)
chain: GAMGMNGQGATSIPGEVAEQAMHWHLELQEPAVSAATLAACMSWRQAHPLHEHAWQRTQVFAQRLREMRSPGQRPLAHAALRPQQS
B2: PupR-ASD A35D (domain or fragment, Pseudomonas putida WCS358)
chain: GAMGMNGQGATSIPGEVAEQAMHWHLELQEPAVSAATLDACMSWRQAHPLHEHAWQRTQVFAQRLREMRSPGQRPLAHAALRPQQS
B3: PupR-ASD M38D (domain or fragment, Pseudomonas putida WCS358)
chain: GAMGMNGQGATSIPGEVAEQAMHWHLELQEPAVSAATLAACDSWRQAHPLHEHAWQRTQVFAQRLREMRSPGQRPLAHAALRPQQS
B4: PupR-ASD L22D (domain or fragment, Pseudomonas putida WCS358)
chain: GAMGMNGQGATSIPGEVAEQAMHWHDELQEPAVSAATLAACMSWRQAHPLHEHAWQRTQVFAQRLREMRSPGQRPLAHAALRPQQS
B5: PupR-ASD Q42D (domain or fragment, Pseudomonas putida WCS358)
chain: GAMGMNGQGATSIPGEVAEQAMHWHLELQEPAVSAATLAACMSWRDAHPLHEHAWQRTQVFAQRLREMRSPGQRPLAHAALRPQQS
B6: PupR-ASD M18D (domain or fragment, Pseudomonas putida WCS358)
chain: GAMGMNGQGATSIPGEVAEQADHWHLELQEPAVSAATLAACMSWRQAHPLHEHAWQRTQVFAQRLREMRSPGQRPLAHAALRPQQS
B7: PupR-ASD L61D (domain or fragment, Pseudomonas putida WCS358)
chain: GAMGMNGQGATSIPGEVAEQAMHWHLELQEPAVSAATLAACMSWRQAHPLHEHAWQRTQVFAQRDREMRSPGQRPLAHAALRPQQS
B8: PupR-ASD R53D (domain or fragment, Pseudomonas putida WCS358)
chain: GAMGMNGQGATSIPGEVAEQAMHWHLELQEPAVSAATLAACMSWRQAHPLHEHAWQDTQVFAQRLREMRSPGQRPLAHAALRPQQS
B9: PupR-ASD F57D (domain or fragment, Pseudomonas putida WCS358)
chain: GAMGMNGQGATSIPGEVAEQAMHWHLELQEPAVSAATLAACMSWRQAHPLHEHAWQRTQVDAQRLREMRSPGQRPLAHAALRPQQS

Molecular target: the molecule itself
Assay: SEC

In the case of B1, the “stoichiometry N” value is reported as 2.

Molecular target: the molecule itself
Assay: AUC

B1 and B2 are within 1.5-fold of each other in Kd: 10.2 µM for the first, 13.5 µM for the second.

Compared with B3, B4 is higher in Kd: 11.6 µM for the first, > 200 µM for the second. The first binds more tightly here.

First: B5
Second: B6
The Kd of the first is 12-fold lower: 18.2 µM for the first, 226 µM for the second. The first binds more tightly here.

B7 and B8 cannot be ordered by Kd: > 500 µM for the first, 562 µM for the second.

B9 was tested, and the Kd was > 200 µM.
